Source: PMC12615815, “GroEL/ES chaperonin unfolds then encapsulates a nascent protein on the ribosome” (Nature Communications, 2025)

B1: GroES (L49W) (natural protein, E. coli, UniProt P0A6F9 1-97, looked up)
chain: MNIRPLHDRVIVKRKEVETKSAGGIVLTGSAAAKSTRGEVLAVGNGRIWENGEVKPLDVKVGDIVIFNDGYGVKSEKIDNEEVLIMSESDILAIVEA
notes: GroES, E. coli co-chaperonin subunit (10.5 kDa as printed); tryptophan mutant used for quantification; also called GroES 7-mer; source: E. coli BL21(DE3), purified (StrepTactin, 3C cleavage, Superdex 200, GSTrap); not shown: double StrepII, N-terminal, cleaved

What was measured:
[1] = target: RNC_(1-510mut): stalled 70S ribosome:nascent chain complex with β-galactosidase 1-510 carrying I141N and G353D (E. coli); assay: co-sedimentation; RNC with GroEL, no GroES and no ATP/BeFx; pellet quantified by iBAQ mass spectrometry, normalised to the average of the ribosomal proteins; n = 3
[2] = target: RNC_(1-510mut): stalled 70S ribosome:nascent chain complex with β-galactosidase 1-510 carrying I141N and G353D (E. coli); assay: co-sedimentation; RNC first incubated with GroEL and GroES (20 min, 30 °C), then 1 mM ATP, 1 mM BeSO4, 10 mM NaF (10 min, 30 °C); 35% sucrose cushion; pellet by immunoblot (GroEL, GroES, S2) and iBAQ mass spectrometry
[3] = target: T1, Ribosomal stalk protein L7/L12 (E. coli, UniProt P0A7K2 1-121); assay: cross-linking; XL-MS: RNC_(1-510mut) with 5 µM GroEL and 10 µM GroES, then 1 mM ATP, 1 mM BeSO4, 10 mM NaF; 1 mM DSBU 1 h at 25 °C; settings: both partners purified
T1 construct: ribosomal protein L7/L12, E. coli, as part of the ribosome; Cross-linked while part of the 70S ribosome or RNC; also called stalk complex; source: endogenous, in E. coli 70S ribosomes (bought: NEB) and in RNCs purified from E. coli

Row | Molecule | stoichiometry N (GroEL subunits per ribosome) [1] | stoichiometry N (GroEL subunits per ribosome) [2] | binding result [3]
1 | GroEL (V381W, A384W, V387W) (from UniProt P0A6F5 2-525) (natural protein) | 9.8 | 6.7 | 
2 | B1 |  |  | binds
